From the supplement of paper PMC7877785
± gives the uncertainty stated by the source.

Experiment: self-splicing fitness, log relative to wild type (ln ratio); higher = more splicing; Tetrahymena group I intron in knt gene, E. coli kanamycin selection, DiMSum; sequences stand for … in CUCUCU…GGAGGGAAAAGUUAUCAGGCAUGCACCUGGUAGCUAGUCUUUAAACCAAUAGAUUGCAUCGGUUUAAAAGGCAAGACCGUCAAAUUGCGGGAAAGGGGUCAACAGCCGUUCAGUACCAAGUCUCAGGGGAAACUUUGAGAUGGCCUUGCAAAGGGUAUGGUAAUAAGCUGACGGACAUGGUCCUAACCACGCAGCCAAGUCCUAAGUCAACAGAUCUUCUGUUGAUAUGGAUGCAGUUCACAGACUAAAUGUCGGUCGGGGAAGAUGUAUUCUUCUCAUAAGAUAUAGUCGGACCUCUCCUUAAUGGGAGCUAGCGGAUGAAGUGAUGCAACACUGGAGCCGCUGGGAACUAAUUUGUAUGCGAAAGUAUAUUGAUUAGUUUUGGAGUACUCGUGGUCG
How it was run: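 Fitness was computed with DiMSum as the error-weighted combination of replicate fold changes, kanamycin versus none, each normalised to wild type. The library randomised all eight intron nucleotides of the P1ex region, with the intron placed in the knt kanamycin-resistance gene on pET-22b(+) in E. coli BL21(DE3). Six replicate transformations were grown overnight at 37°C or 30°C on LB agar with or without 25 μg/mL kanamycin, plus 100 μg/mL carbenicillin, 50 μM IPTG and 0.2% rhamnose. Pooled colonies were amplicon-sequenced on an Illumina HiSeq 2500.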

Sequence	self-splicing fitness (ln) (30 °C)	self-splicing fitness (ln) (37 °C)
GACGAGCAAUAUUACGGUAG	-4.01 ± 0.36	-2.18 ± 0.22
GACGAGCAAUAUUACGGUGC	-2.72 ± 0.28	-1.47 ± 0.25
GACGAGCAAUAUUACGUUGU	-3.4 ± 0.14	-2.74 ± 0.16
GACUAGCAAUAUUACGACUA	-1.04 ± 0.16	-0.443 ± 0.14
GACUAGCAAUAUUACGAGCC	-1.28 ± 0.17	-0.877 ± 0.26
GACUAGCAAUAUUACGAGGA	-2.29 ± 0.17	-1.43 ± 0.14
GACUAGCAAUAUUACGAUAG	-2.95 ± 0.16	-1.17 ± 0.12
GACUAGCAAUAUUACGCAAC	-0.979 ± 0.15	-1.54 ± 0.19
GACUAGCAAUAUUACGCAAG	-4.58 ± 0.36	-1.6 ± 0.15
GACUAGCAAUAUUACGCACA	-0.58 ± 0.13	0.00566 ± 0.14
GACUAGCAAUAUUACGCCGA	-0.898 ± 0.21	-0.421 ± 0.2
GACUAGCAAUAUUACGCGGG	-2.7 ± 0.22	-1.75 ± 0.18
GACUAGCAAUAUUACGCUGA	-1.16 ± 0.14	-0.638 ± 0.14
GACUAGCAAUAUUACGGACU	-0.117 ± 0.11	-0.611 ± 0.14
GACUAGCAAUAUUACGGAUC	-0.87 ± 0.096	-0.304 ± 0.14
GACUAGCAAUAUUACGGCGU	-0.502 ± 0.11	-0.198 ± 0.1
GACUAGCAAUAUUACGGCUA	-2.4 ± 0.17	-0.921 ± 0.12
GACUAGCAAUAUUACGGGAC	-2.29 ± 0.17	-1.44 ± 0.19
GACUAGCAAUAUUACGGUAA	-0.126 ± 0.084	-0.197 ± 0.078
GACUAGCAAUAUUACGGUCC	–	-1.49 ± 0.42
GACUAGCAAUAUUACGGUGA	-1.07 ± 0.11	-0.694 ± 0.097
GACUAGCAAUAUUACGUACA	-1.02 ± 0.14	-0.0348 ± 0.15
GACUAGCAAUAUUACGUCCA	-2.24 ± 0.29	-1.47 ± 0.26
GACUAGCAAUAUUACGUGGC	-3.56 ± 0.24	-2.54 ± 0.21
GAGAAGCAAUAUUACGAAGG	-2.97 ± 0.24	–
GAGAAGCAAUAUUACGAAUC	-3.91 ± 0.31	-1.12 ± 0.19

Sequence	self-splicing fitness (ln) (30 °C)	self-splicing fitness (ln) (37 °C)
GAGAAGCAAUAUUACGAAUG	-3.46 ± 0.28	-1.7 ± 0.18
GAGAAGCAAUAUUACGACCG	-0.945 ± 0.32	-0.457 ± 0.27
GAGAAGCAAUAUUACGACGC	-0.75 ± 0.15	-0.292 ± 0.17
GAGAAGCAAUAUUACGAGGA	-3.83 ± 0.33	-2.11 ± 0.19
GAGAAGCAAUAUUACGAGGG	-3.49 ± 0.17	-2.99 ± 0.19
GAGAAGCAAUAUUACGCAAG	-1.6 ± 0.2	-0.212 ± 0.21
GAGAAGCAAUAUUACGCACC	-1.91 ± 0.28	-1.41 ± 0.42
GAGAAGCAAUAUUACGCAUC	-3.12 ± 0.43	-2.6 ± 0.35
GAGAAGCAAUAUUACGCCAC	–	-0.779 ± 0.37
GAGAAGCAAUAUUACGCCUU	-2.46 ± 0.26	-0.767 ± 0.27
GAGAAGCAAUAUUACGCUGU	-3.35 ± 0.3	-1.45 ± 0.29
GAGAAGCAAUAUUACGCUUG	-2.34 ± 0.1	-0.658 ± 0.13
GAGAAGCAAUAUUACGGGGC	-3.04 ± 0.19	-3.05 ± 0.23
GAGAAGCAAUAUUACGUGUG	-2.18 ± 0.12	-1.96 ± 0.15
GAGAAGCAAUAUUACGUUAU	-3.33 ± 0.19	-2.47 ± 0.16
GAGAAGCAAUAUUACGUUGA	-3.28 ± 0.21	-1.19 ± 0.17
GAGAAGCAAUAUUACGUUGC	-3.47 ± 0.24	-3.31 ± 0.31
GAGCAGCAAUAUUACGAACA	-1.47 ± 0.12	-1.07 ± 0.15
GAGCAGCAAUAUUACGACUU	-0.557 ± 0.11	-0.841 ± 0.14
GAGCAGCAAUAUUACGAGGG	–	-2.81 ± 0.38
GAGCAGCAAUAUUACGAUCA	-2.14 ± 0.15	-1.99 ± 0.15
GAGCAGCAAUAUUACGAUUA	-2.26 ± 0.15	-1.13 ± 0.12
GAGCAGCAAUAUUACGCAGU	-3.57 ± 0.2	-1.4 ± 0.17
GAGCAGCAAUAUUACGCCAA	-1.55 ± 0.29	-1.43 ± 0.31
GAGCAGCAAUAUUACGCCGG	-4.11 ± 0.39	-1.82 ± 0.3
GAGCAGCAAUAUUACGCGAC	-3.05 ± 0.49	-1.13 ± 0.29

Sequence	self-splicing fitness (ln) (30 °C)	self-splicing fitness (ln) (37 °C)
GAGCAGCAAUAUUACGCUAG	-2.4 ± 0.14	-1.53 ± 0.17
GAGCAGCAAUAUUACGCUAU	-2.73 ± 0.27	-1.93 ± 0.17
GAGCAGCAAUAUUACGCUCA	-2.14 ± 0.2	-1.91 ± 0.16
GAGCAGCAAUAUUACGCUGG	-3 ± 0.16	-1.47 ± 0.16
GAGCAGCAAUAUUACGGAGC	-3.14 ± 0.13	-0.471 ± 0.11
GAGCAGCAAUAUUACGGCAA	-0.276 ± 0.062	-0.126 ± 0.072
GAGCAGCAAUAUUACGGCGA	-1.21 ± 0.099	-0.604 ± 0.11
GAGCAGCAAUAUUACGGUAU	-2.9 ± 0.11	-1.34 ± 0.1
GAGCAGCAAUAUUACGGUGG	-3.9 ± 0.2	-2.31 ± 0.16
GAGCAGCAAUAUUACGGUUG	-3.18 ± 0.17	-1.99 ± 0.16
GAGCAGCAAUAUUACGUAUA	-3.2 ± 0.27	-2.97 ± 0.27
GAGCAGCAAUAUUACGUAUG	-2.86 ± 0.14	-2.5 ± 0.2
GAGCAGCAAUAUUACGUCAC	-3.67 ± 0.18	-1.3 ± 0.17
GAGCAGCAAUAUUACGUGUC	-2.9 ± 0.12	-2.01 ± 0.12
GAGGAGCAAUAUUACGAGUG	-2.88 ± 0.35	-2.5 ± 0.23
GAGGAGCAAUAUUACGCAUG	-3.19 ± 0.48	-2.65 ± 0.3
GAGGAGCAAUAUUACGCUCG	-1.49 ± 0.14	-1.26 ± 0.22
GAGGAGCAAUAUUACGCUUC	–	-3.68 ± 0.46
GAGGAGCAAUAUUACGCUUG	-1.28 ± 0.15	-1.27 ± 0.2
GAGGAGCAAUAUUACGGCCG	–	-1.55 ± 0.39
GAGGAGCAAUAUUACGGCUU	-3.52 ± 0.37	-2.39 ± 0.25
GAGGAGCAAUAUUACGGGUG	-3.55 ± 0.27	-1.95 ± 0.32
GAGGAGCAAUAUUACGGUCC	-2.95 ± 0.16	-0.994 ± 0.2
GAGGAGCAAUAUUACGGUUU	-2.44 ± 0.13	-2.28 ± 0.16
GAGGAGCAAUAUUACGUACU	-2.16 ± 0.16	-0.205 ± 0.19
